Results published in patent US20260216242A1 (ALMAC DISCOVERY, published 2026).
Residue numbers refer to the chain shown, from its start. Names may count otherwise. One block for each binder: values may come before it.

Legend:
[1] = target: T1, Human ALPL (leucine zipper) (human); test: BLI, antigen immobilised
T1 construct: Whole entry: fused with a cysteine stabilised leucine zipper and His tag; also called hALPL
T1 chain: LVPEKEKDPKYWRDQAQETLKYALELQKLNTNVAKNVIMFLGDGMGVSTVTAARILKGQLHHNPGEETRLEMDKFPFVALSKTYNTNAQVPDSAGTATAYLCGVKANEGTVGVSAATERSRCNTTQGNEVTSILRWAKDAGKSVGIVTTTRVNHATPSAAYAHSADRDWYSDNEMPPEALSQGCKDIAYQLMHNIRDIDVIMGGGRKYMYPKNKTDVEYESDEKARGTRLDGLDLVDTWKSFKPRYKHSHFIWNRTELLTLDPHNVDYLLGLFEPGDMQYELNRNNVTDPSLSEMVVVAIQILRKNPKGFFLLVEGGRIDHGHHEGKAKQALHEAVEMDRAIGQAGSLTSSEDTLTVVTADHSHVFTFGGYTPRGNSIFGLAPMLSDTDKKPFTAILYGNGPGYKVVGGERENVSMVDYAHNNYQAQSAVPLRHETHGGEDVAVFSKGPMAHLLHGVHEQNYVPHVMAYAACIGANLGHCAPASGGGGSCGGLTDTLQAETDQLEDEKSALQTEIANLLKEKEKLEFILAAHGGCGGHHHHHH
Protocol: (§1) Binding kinetics were determined using the Biolayer Interferometry (BLI) Octet K2 system (Sartorius). […] All assays were conducted in PBS with a plate temperature of 25° C. Ka (M⁻¹s⁻¹), Kd (s⁻¹) and KD (nM) values were determined using Octet Data Analysis High Throughput software (ForteBio) for Biolayer Interferometry.

[2] = target: T2, Human ALPP (leucine zipper) (human); test: BLI, antigen immobilised
T2 construct: Whole entry: ALPP fused with a cysteine stabilised leucine zipper and His tag; also called hALPP
T2 chain: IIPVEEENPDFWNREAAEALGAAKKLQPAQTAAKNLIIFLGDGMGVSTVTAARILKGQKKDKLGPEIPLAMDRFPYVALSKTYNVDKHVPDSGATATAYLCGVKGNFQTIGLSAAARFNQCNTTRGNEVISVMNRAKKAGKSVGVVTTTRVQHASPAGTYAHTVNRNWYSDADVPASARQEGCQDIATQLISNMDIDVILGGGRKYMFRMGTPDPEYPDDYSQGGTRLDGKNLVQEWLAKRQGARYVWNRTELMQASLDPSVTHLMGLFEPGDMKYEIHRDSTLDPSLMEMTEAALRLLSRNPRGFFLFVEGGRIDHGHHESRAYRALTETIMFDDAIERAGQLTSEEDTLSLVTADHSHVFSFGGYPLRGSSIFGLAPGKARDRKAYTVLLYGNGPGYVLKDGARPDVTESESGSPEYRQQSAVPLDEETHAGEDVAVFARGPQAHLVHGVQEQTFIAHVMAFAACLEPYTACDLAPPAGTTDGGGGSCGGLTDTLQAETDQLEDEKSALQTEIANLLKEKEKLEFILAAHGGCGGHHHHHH
Protocol: as §1

ALPP CysHis = target: T3, ALPP CysHis (human, UniProt P05187 23-502); test: ELISA, antigen coated
T3 construct: Whole entry: engineered human ALPP with an introduced cysteine and a His tag; homodimer; also called engineered ALPP homodimer; hALPP (ELISA)
Source text: (§2) ELISA was used to test the binding and specificity of the VHHs. […] Anti-Llama—HRP antibody was used for detection.

ALPI His homodimer = target: T4, ALPI His homodimer (human, UniProt P09923 20-503); test: ELISA, antigen coated
T4 construct: Whole entry with His tag; used in ELISA and BLI; also called hALPI
T4 sequence: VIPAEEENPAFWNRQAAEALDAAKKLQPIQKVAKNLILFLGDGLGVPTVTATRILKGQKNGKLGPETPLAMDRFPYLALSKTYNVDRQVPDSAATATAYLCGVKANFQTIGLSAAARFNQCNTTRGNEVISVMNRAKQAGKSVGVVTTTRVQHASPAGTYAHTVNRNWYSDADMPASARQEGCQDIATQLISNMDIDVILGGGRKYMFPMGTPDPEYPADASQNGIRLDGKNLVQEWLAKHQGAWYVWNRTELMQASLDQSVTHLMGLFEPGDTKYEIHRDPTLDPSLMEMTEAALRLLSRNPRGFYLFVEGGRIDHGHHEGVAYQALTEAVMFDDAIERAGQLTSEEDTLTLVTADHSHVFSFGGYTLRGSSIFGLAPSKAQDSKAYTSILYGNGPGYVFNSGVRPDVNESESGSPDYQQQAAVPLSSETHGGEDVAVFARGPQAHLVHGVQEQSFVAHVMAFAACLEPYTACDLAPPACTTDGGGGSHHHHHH
Source text: as §2

[3] = target: T5, human ALPPL2 (alkaline phosphatase, germ cell type) expressed on the surface of CHO cells (human, UniProt P10696 20-503); test: flow cytometry on CHO-ALPPL2 cells, apparent KD (KDapp)
T5 construct: whole, on cells; The cell-surface form has none; also called CHO-ALPPL2; hALPPL2
T5 sequence (P10696 20-503): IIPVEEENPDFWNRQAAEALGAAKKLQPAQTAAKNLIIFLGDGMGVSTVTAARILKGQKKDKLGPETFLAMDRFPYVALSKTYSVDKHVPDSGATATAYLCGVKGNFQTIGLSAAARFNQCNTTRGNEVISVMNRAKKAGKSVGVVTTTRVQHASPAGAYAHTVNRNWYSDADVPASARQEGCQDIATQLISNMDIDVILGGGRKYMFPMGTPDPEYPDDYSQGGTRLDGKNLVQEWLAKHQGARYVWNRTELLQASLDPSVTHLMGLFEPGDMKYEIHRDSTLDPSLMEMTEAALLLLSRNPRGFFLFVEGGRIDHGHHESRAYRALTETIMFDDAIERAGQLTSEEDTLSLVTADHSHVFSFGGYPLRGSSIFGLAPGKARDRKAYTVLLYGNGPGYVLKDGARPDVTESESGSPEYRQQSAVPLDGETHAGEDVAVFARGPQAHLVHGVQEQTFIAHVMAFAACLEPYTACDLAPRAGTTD
Protocol: (§3) Biparatopic VHH-hFc drug conjugates were assessed for human ALPP, ALPPL2, ALPI and ALPL cell-surface binding by flow cytometry. Binders were screened on CHO cells stably expressing human ALPP, ALPPL2, ALPI or ALPL.
(§4) Cell surface binding of test agents to hALPP isoforms was characterized in four CHO-ALPP isoform transfectant cell lines (CHO-ALPP, CHO-ALPPL2, CHO-ALPI and CHO-ALPL) and the resulting KDapp values determined. Adherent cells were detached from tissue culture flasks by incubating with 0.1% EDTA/PBS solution at 37° C. for […] or until cells detached easily. Cells were re-suspended in ice-cold PBS/2% FCS in 15 ml tubes and centrifuged at 1700 rpm for 5 mins at 4° C. Supernatant was removed and the cell pellet re-suspended in PBS/2% FCS. […] Cells were incubated with 100 μl of test agents at a range of concentrations, plus controls for 1 hr on ice. The sample plate was centrifuged at 1700 rpm for 5 mins at 4° C. The supernatant was removed, and a wash performed by re-suspending the cell pellets in 0.25 mL of ice-cold PBS/2% FCS using a multichannel pipette. Samples were again centrifuged at 1700 rpm for 5 min at 4° C. Supernatant was removed and two further washes performed as described. After the final wash and centrifugation step, excess liquid was removed by blotting the plate on tissue paper. Binding of VHH-hFc agents was determined by adding 100 μl of Fitc-anti-human Ab (ThermoFisher) and incubating for 30 mins on ice in the dark. Wash steps were performed as described previously. All cell pellets were finally re-suspended in 0.28 ml of ice-cold PBS/2% FCS and left on ice in the dark prior to analysis on a Merck-Millipore Guava EasyCyte HT or Thermo Fisher Attune N×T flow cytometer.

[4] = target: T6, human ALPL (tissue non-specific alkaline phosphatase) expressed on the surface of CHO cells (human, UniProt P05186 18-501); test: cell-based or functional assay
T6 sequence (looked up): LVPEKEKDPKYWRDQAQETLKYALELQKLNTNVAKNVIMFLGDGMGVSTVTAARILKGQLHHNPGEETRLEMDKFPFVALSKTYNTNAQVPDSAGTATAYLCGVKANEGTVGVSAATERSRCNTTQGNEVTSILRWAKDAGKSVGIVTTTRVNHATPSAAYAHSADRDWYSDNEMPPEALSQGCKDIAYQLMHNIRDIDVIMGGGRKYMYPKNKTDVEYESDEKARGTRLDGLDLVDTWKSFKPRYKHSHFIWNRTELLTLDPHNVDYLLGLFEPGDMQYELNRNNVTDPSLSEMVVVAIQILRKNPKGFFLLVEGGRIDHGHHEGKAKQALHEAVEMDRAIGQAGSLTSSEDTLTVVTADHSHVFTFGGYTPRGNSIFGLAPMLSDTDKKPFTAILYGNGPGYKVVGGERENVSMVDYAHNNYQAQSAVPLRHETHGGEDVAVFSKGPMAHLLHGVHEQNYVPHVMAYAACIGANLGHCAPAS

[5] = target: T7, human ALPI (intestinal alkaline phosphatase) expressed on the surface of CHO cells (human, UniProt P09923 20-503); test: cell-based or functional assay
T7 sequence (looked up): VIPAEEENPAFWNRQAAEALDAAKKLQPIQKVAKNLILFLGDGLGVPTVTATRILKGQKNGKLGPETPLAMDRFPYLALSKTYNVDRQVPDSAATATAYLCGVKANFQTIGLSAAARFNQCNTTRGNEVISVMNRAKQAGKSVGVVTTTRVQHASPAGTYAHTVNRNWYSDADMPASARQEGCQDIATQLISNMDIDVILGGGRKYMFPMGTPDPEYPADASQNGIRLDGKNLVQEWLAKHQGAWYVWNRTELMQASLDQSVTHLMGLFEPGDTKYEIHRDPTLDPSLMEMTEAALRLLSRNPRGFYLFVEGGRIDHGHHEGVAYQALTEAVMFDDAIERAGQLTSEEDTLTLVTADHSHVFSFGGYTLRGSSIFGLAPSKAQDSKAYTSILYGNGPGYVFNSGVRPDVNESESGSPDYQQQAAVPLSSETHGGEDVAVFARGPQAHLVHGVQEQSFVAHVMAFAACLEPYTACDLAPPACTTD

[6] = target: T5, human ALPPL2 (alkaline phosphatase, …); test: cell-based or functional assay
[7] = target: T6, human ALPL (tissue non-specific …); test: flow cytometry, CHO-ALPL cells
[8] = target: T7, human ALPI (intestinal alkaline …); test: flow cytometry on CHO-ALPI cells
[9] = target: T8, human ALPP (alkaline phosphatase, placental type) expressed on the surface of CHO cells (human, UniProt P05187 23-506); test: flow cytometry on CHO-ALPP cells, apparent KD (KDapp)
T8 construct: also called CHO-ALPP; hALPP
Protocol: as §3, §4

- binding result [1]: no binding
- Kd [2]: < 0.01 nM
- koff [2]: < 1e-07 s⁻¹
- kon [2]: 38600 M⁻¹ s⁻¹
- binding result (ALPP CysHis): binds
- binding result (ALPI His homodimer): no binding (tested: 500 ng VHH)
B1: F12 (VHH, not shown: small tags and cut ends)
VHH: QVQLVESGGGLVEAGGSLRLSCAVSGSALSDYNIGWFRQAPGKEREFVARKTWDGSSTKYDDSVKGRFTVSIDNAKNTAYLQMNSLKTEDTAVYYCAAGRYSRVRGWEYDYWGQRTQVTVSS

- binding result [1]: no binding
- binding result (ALPP CysHis): binds
- binding result (ALPI His homodimer): no binding (tested: 500 ng VHH)
B2: E12 (VHH, not shown: small tags and cut ends)
VHH: QVQLVESGGGSVQAGGSLRLSCAASGPSISNFAMGWFRQAPGKEREFVAGISWGGGRTNYLDSVKGRFTISRDNAKNMVHLQMNSLKPEDTTVYYCAGRYGRGRDVEYEYDYWGQGTQVTVSS

- Kd [3]: 7.6 nM
- MFI on CHO-ALPI cells at 350 nM as percent of MFI on CHO-ALPP cells (KDapp not-determinable) [8]: ≤ 1%
- Kd [9]: 13.4 nM
B3: A06 E10-hFc (S239/442C T366Y/Y407T), [G4S]1 linker, MC-vc-PAB-MMAE conjugate, #711 (Fc fusion, DAR 4)
chain 1: QVHLVESGGGLVQAGGSLRLSCAASGRTFLSMGWFRQAPGKEREFVAAISWTGGSTGYADSVKGRFTISRESDKETMYLQMNSLKPEDTAVYYCAARGDVYYGGDDATRYKYWGQGTQVTVSSGGGGSEPKSSDKTHTCPPCPAPELLGGPCVFLFPPKPKDTLMISRTPEVTCVVVDVSHEDPEVKFNWYVDGVEVHNAKTKPREEQYNSTYRVVSVLTVLHQDWLNGKEYKCKVSNKALPAPIEKTISKAKGQPREPQVYTLPPSRDELTKNQVSLYCLVKGFYPSDIAVEWESNGQPENNYKTTPPVLDSDGSFFLYSKLTVDKSRWQQGNVFSCSVMHEALHNHYTQKSLCLSPGK
chain 2: QVQLVESGGGLVQAGGSLRLSCAVSGRALSDYNIGWFRQAPGKEREFVARKTWDGSSTRYDDSVKGRFTVSIEDAKNTAYLQMSSLKTEDTAVYYCAAGRYSRARGWEYDYWGQGTQVTVSSGGGGSEPKSSDKTHTCPPCPAPELLGGPCVFLFPPKPKDTLMISRTPEVTCVVVDVSHEDPEVKFNWYVDGVEVHNAKTKPREEQYNSTYRVVSVLTVLHQDWLNGKEYKCKVSNKALPAPIEKTISKAKGQPREPQVYTLPPSRDELTKNQVSLTCLVKGFYPSDIAVEWESNGQPENNYKTTPPVLDSDGSFFLTSKLTVDKSRWQQGNVFSCSVMHEALHNHYTQKSLCLSPGK
modifications: MC-vc-PAB-MMAE on Cys of S239C and S442C (EU numbering)
notes: Biparatopic knob-into-hole VHH-hFc heterodimer, DAR 4; The assignment of T366Y to the first named VHH and Y407T to the second follows the order of the name; No paragraph spells out this pair; also called A06-E10-hFc-vcPAB-MMAE; A06-E10 hFc-vc-MMAE
- IC50 at 96 h, cell-killing of CHO-ALPL cells (estimated from data extrapolation) [4]: ~597 nM
- IC50 at 96 h, cell-killing of CHO-ALPI cells (estimated from data extrapolation) [5]: ~673 nM
- IC50 at 96 h, cell-killing of CHO-ALPPL2 cells [6]: 14.1 nM
- binding result [7]: no binding (tested: 350 nM (highest concentration))

- Kd [3]: 5.7 nM
- MFI on CHO-ALPI cells at 350 nM as percent of MFI on CHO-ALPP cells (KDapp not-determinable) [8]: ≤ 1%
- Kd [9]: 10.6 nM
B4: A06 F05-hFc (S239/442C T366Y/Y407T), [G4S]1 linker, MC-vc-PAB-MMAE conjugate, #712 (Fc fusion, DAR 4)
chain 1: B3 chain 1
chain 2: B3 chain 2 with V24A, L29F, S30G, K51R, E73D, D74N, S84N, A104V
modifications: MC-vc-PAB-MMAE on Cys of S239C and S442C (EU numbering)
notes: also called A06-F05-hFc-vcPAB-MMAE; A06-F05 hFc-vc-MMAE
- IC50 at 96 h, cell-killing of CHO-ALPL cells (estimated from data extrapolation) [4]: ~551 nM
- IC50 at 96 h, cell-killing of CHO-ALPI cells (estimated from data extrapolation) [5]: ~776 nM
- IC50 at 96 h, cell-killing of CHO-ALPPL2 cells [6]: 14.8 nM
- binding result [7]: no binding (tested: 350 nM (highest concentration))
